Measurements reported in article PMC4252739 (Cell host & microbe, 2014).
Changes are numbered by the printed parent chain. Names and notes keep the numbering of the source.

B1: MxB-HA K663D (natural protein)
chain: MSKAHKPWPYRRRSQFSSRKYLKKEMNSFQQQPPPFGTVPPQMMFPPNWQGAEKDAAFLAKDFNFLTLNNQPPPGNRSQPRAMGPENNLYSQYEQKVRPCIDLIDSLRALGVEQDLALPAIAVIGDQSSGKSSVLEALSGVALPRGSGIVTRCPLVLKLKKQPCEAWAGRISYRNTELELQDPGQVEKEIHKAQNVMAGNGRGISHELISLEITSPEVPDLTIIDLPGITRVAVDNQPRDIGLQIKALIKKYIQRQQTINLVVVPCNVDIATTEALSMAHEVDPEGDRTIGILTKPDLMDRGTEKSVMNVVRNLTYPLKKGYMIVKCRGQQEITNRLSLAEATKKEITFFQTHPYFRVLLEEGSATVPRLAERLTTELIMHIQKSLPLLEGQIRESHQKATEELRRCGADIPSQEADKMFFLIEKIKMFNQDIEKLVEGEEVVRENETRLYNKIREDFKNWVGILATNTQKVKNIIHEEVEKYEKQYRGKELLGFVNYKTFEIIVHQYIQQLVEPALSMLQKAMEIIQQAFINVAKKHFGEFFNLNQTVQSTIEDIKVKHTAKAENMIQLQFRMEQMVFCQDQIYSVVLKKVREEIFNPLGTPSQNMKLNSHFPSNESSVSSFTEIGIHLNAYFLETSKRLANQIPFIIQYFMLRENGDSLQDAMMQILQEKNRYSWLLQEQSETATKRRILKERIYRLTQARHALCQFSSKEIH
B2: MxB-HA M666D (natural protein)
chain: B1 chain with D663K, M666D
B3: MBP-MxB_(1-715 IK/DD) (natural protein, UniProt P20592 1-715, looked up)
chain: B1 chain with I423D
B4: MBP-MxB (full-length WT MxB tagged with maltose-binding protein) (natural protein, UniProt P20592 1-715, looked up)
chain: B1 chain with D663K
B5: MBP-MxB_(1-715 IKM/DDD) (natural protein, UniProt P20592 1-715, looked up)
chain: B1 chain with I423D, M666D
B6: MxB-HA E681A (natural protein)
chain: B1 chain with D663K, E681A
B7: MxB-HA Y651D (natural protein)
chain: B1 chain with Y651D, D663K
B8: MxB_(84YRGK) (6xHis-MxB residues 84-715 with YRGK487-490AAAA) (domain or fragment)
chain: GPENNLYSQYEQKVRPCIDLIDSLRALGVEQDLALPAIAVIGDQSSGKSSVLEALSGVALPRGSGIVTRCPLVLKLKKQPCEAWAGRISYRNTELELQDPGQVEKEIHKAQNVMAGNGRGISHELISLEITSPEVPDLTIIDLPGITRVAVDNQPRDIGLQIKALIKKYIQRQQTINLVVVPCNVDIATTEALSMAHEVDPEGDRTIGILTKPDLMDRGTEKSVMNVVRNLTYPLKKGYMIVKCRGQQEITNRLSLAEATKKEITFFQTHPYFRVLLEEGSATVPRLAERLTTELIMHIQKSLPLLEGQIRESHQKATEELRRCGADIPSQEADKMFFLIEKIKMFNQDIEKLVEGEEVVRENETRLYNKIREDFKNWVGILATNTQKVKNIIHEEVEKYEKQAAAAELLGFVNYKTFEIIVHQYIQQLVEPALSMLQKAMEIIQQAFINVAKKHFGEFFNLNQTVQSTIEDIKVKHTAKAENMIQLQFRMEQMVFCQDQIYSVVLKKVREEIFNPLGTPSQNMKLNSHFPSNESSVSSFTEIGIHLNAYFLETSKRLANQIPFIIQYFMLRENGDSLQKAMMQILQEKNRYSWLLQEQSETATKRRILKERIYRLTQARHALCQFSSKEIH
B9: MxB_(84YRGK/M574D) (domain or fragment, UniProt P20592 84-715, looked up)
chain: B8 chain with M491D

Key:
[1] = biological target: HIV-1 CA A14C/E45C cross-linked tubular assemblies (HIV-1); test: co-sedimentation
SEC [2] = biological target: the molecule itself; test: SEC
cryo-EM imaging = biological target: the molecule itself; test: cryo-EM imaging
SEC [3] = biological target: the molecule itself; test: SEC; remark: listed apart in the source

Binder	binding specificity (percent of input co-pelleted, background corrected) [1]	further results
B1	27%	
B2	26%	
B3	40%	stoichiometry N (SEC [2]): 2
B4		binding result (cryo-EM imaging): binds
B5		stoichiometry N (SEC [2]): 2
B6	9.8%	
B7	< 0.1%	
B8		percent co-sedimented with CA [1]: 9%
B9		binding result (SEC [3]): binds
